Target: Lysozyme (UniProt P00698 19-147)
Assay: electrochemical impedance spectroscopy (label-free aptasensor); PEG-blocked electrode; 0.25-5 uM lysozyme; LOD 1.67 uM, slope 0.090 uM-1 (not Kd); Room temperature incubation; buffers listed: PBS (187 mM NaCl, 2.7 mM KCl, 8.1 mM Na2HPO4, 1.76 mM KH2PO4, pH 7.0) and BB (1 mM MgCl2, 2.7 mM KCl, 140 mM NaCl)
Conditions: protein: commercial

Chain of Lysozyme (P00698 19-147): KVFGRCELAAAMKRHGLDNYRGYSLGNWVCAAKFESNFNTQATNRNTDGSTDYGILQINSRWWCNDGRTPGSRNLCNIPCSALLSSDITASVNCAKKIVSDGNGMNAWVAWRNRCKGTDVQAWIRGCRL

## ATCTACGAATTCATCAGGGCTAAAGAGTGCAGAGTTACTTAG (ssDNA, 5' aminolink C6, immobilized via amide bond on graphite-epoxy electrode) [AptLys (lysozyme aptamer)]
  binding result: binds

From PMC5855017, “Label-Free Aptasensor for Lysozyme Detection Using Electrochemical Impedance Spectroscopy”
